The record followed here is PMC3722153, “Refolding of a Thermostable Glyceraldehyde Dehydrogenase for Application in Synthetic Cascade Biomanufacturing” (PLoS ONE, 2013).

Substrate in series [1]: NC(=O)c1ccc[n+]([C@@H]2O[C@H](COP(=O)(O)OP(=O)(O)OC[C@H]3O[C@@H](n4cnc5c(N)ncnc54)[C@H](O)[C@@H]3O)[C@@H](O)[C@H]2O)c1
Briefly: purified protein. Format: biochemical, Thermoplasma acidophilum. The note with it: 5 mM D-glyceraldehyde, 0-75 mM NAD+, 100 mM HEPES pH 6.2, 50°C, refolded enzyme 0.02 mg/mL, apparent, varied: cofactor. From the text:
(§1) (glyceraldehyde dehydrogenase, aldehyde dehydrogenase from Thermoplasma acidophilum)

Substrate in series [2]: NC(=O)c1ccc[n+]([C@@H]2O[C@H](COP(=O)(O)OP(=O)(O)OC[C@H]3O[C@@H](n4cnc5c(N)ncnc54)[C@H](OP(=O)(O)O)[C@@H]3O)[C@@H](O)[C@H]2O)c1
Briefly: purified protein. Format: biochemical, Thermoplasma acidophilum. The note with it: 5 mM D-glyceraldehyde, 0-0.24 mM NADP+, 100 mM HEPES pH 6.2, 50°C, refolded enzyme 0.02 mg/mL, apparent, varied: cofactor.
From the text: as §1

Series [3] concerns the molecule itself. Kind of series: SEC; Superdex 200 gel filtration, calibrated with molecular mass standards; 50 mg lyophilized TaAlDH dissolved in 10 mL 20 mM TRIS pH 8; soluble and refolded preparations. For orientation: In gel filtration, larger molecules generally elute earlier.

B1: glyceraldehyde dehydrogenase (aldehyde dehydrogenase) from Thermoplasma acidophilum (enzyme, UniProt Q9HK01 1-493, looked up)
chain: MDTKLYIDGQWVNSSSGKTVDKYSPVTGQVIGRFEAATRDDVDRAIDAAEDAFWAWNDLGSVERSKIIYRAKELIEKNRAELENIIMEENGKPVKEAKEEVDGVIDQIQYYAEWARKLNGEVVEGTSSHRKIFQYKVPYGIVVALTPWNFPAGMVARKLAPALLTGNTVVLKPSSDTPGSAEWIVRKFVEAGVPKGVLNFITGRGSEIGDYIVEHKKVNLITMTGSTATGQRIMQKASANMAKLILELGGKAPFMVWKDADMDNALKTLLWAKYWNAGQSCIAAERLYVHEDIYDTFMSRFVELSRKLALGDPKNADMGPLINKGALQATSEIVEEAKESGAKILFGGSQPSLSGPYRNGYFFLPTIIGNADQKSKIFQEEIFAPVIGARKISSVEEMYDLANDSKYGLASYLFTKDPNIIFEASERIRFGELYVNMPGPEASQGYHTGFRMTGQAGEGSKYGISEYLKLKNIYVDYSGKPLHINTVRDDLFQ
notes: glyceraldehyde dehydrogenase (TaAlDH) of Thermoplasma acidophilum; calculated mass 56 kDa (56.4 kDa); they are written as one molecule; also called TaAlDH; AlDH; source: E. coli BL21 (DE3)
For the protein B1, in “purified protein [1]”, the Km is 22.13 ± 1.43 mM and the Vmax turned out to be 1.86 µmol/min/mg. For the same protein, in “purified protein [2]”, the Km came out at 0.022 ± 0.001 mM and the Vmax stood at 0.849 µmol/min/mg. For the same protein, the “stoichiometry N” value in series [3] worked out at 2.

A word on the Km: it is the concentration of substrate that gives half-maximal velocity. The Vmax is the top rate of the reaction or transport when substrate is in excess. One may read the stoichiometry N as a count of units in the complex or per binding partner.
